According to the supplement of paper PMC10724198:
± gives the standard deviation of the averaged measurements.

Test system: Saccharomyces cerevisiae
Assay: protein stability index of tFT-peptide fusion (C-terminal peptide) (PSI (0-1 scale)); higher = more stable (slower turnover)
Conditions: genetic background: wild type; temperature: 30 C
Method: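 Multiplexed protein stability (MPS) profiling in S. cerevisiae. Random 12-aa peptides (tFT-X12 library) are fused to the C-terminus of a sfGFP-mCherry tandem fluorescent timer, after mCherry and a GGGS linker. Cells are FACS-sorted into 8 mCherry/sfGFP bins and deep-sequenced. The protein stability index (PSI) is the read-weighted bin average, scaled from 0 (unstable) to 1 (stable). Only peptides with >10 reads are reported; cells were grown at 30 °C in SC-His with glucose.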
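Further: PSI is a weighted mean of sequencing reads over stability bins, variants kept only with over 10 reads, mCherry proximal and sfGFP distal, peptide attached via GGGS linker.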

| Sequence | protein stability index |
| --- | --- |
| CGGSCLQDGGWA | 0.787 ± 0.1 |
| PPSPHHPPPPAL | 0.753 ± 0.0082 |
| TGSKKKKVEIEM | 0.679 ± 0.048 |
| ACRLWWRRGGEG | 0.61 ± 0.045 |
| IAWGNEISHSLF | 0.72 ± 0.066 |
| WVGWVACGAGGG | 0.651 ± 0.061 |
| FNSFPPSPSLRP | 0.729 ± 0.012 |
| SGFRALWGLFAL | 0.683 ± 0.014 |
| PLNSNSYDASPL | 0.658 ± 0.052 |
| SLEFISIAFLDL | 0.685 ± 0.042 |
| PLQFLPPLPCVS | 0.539 ± 0.039 |
| PPFPPPPPPPLS | 0.714 ± 0.05 |
| PPYSPSPRDPFA | 0.713 ± 0.047 |
| GFLGTLARAGRE | 0.657 ± 0.068 |
| FSAVRIQASLRW | 0.629 ± 0.028 |
| ENCPPETLNRGE | 0.686 ± 0.081 |
| SPCVPTPSRPAS | 0.685 ± 0.079 |
| GGSGGRVGVAGG | 0.645 ± 0.062 |
| DRPYPTTFRSSR | 0.66 ± 0.017 |
| LPHLSPPPLAQL | 0.686 ± 0.033 |
| SRPPLLPTPPPS | 0.701 ± 0.047 |
| LLHHPPPPPSQP | 0.769 ± 0.011 |
| CIFCCGWCLDRL | 0.719 ± 0.058 |
| SEGKQYITGRWK | 0.702 ± 0.084 |
| RLTLPSQPHAPA | 0.694 ± 0.098 |

| Sequence | protein stability index |
| --- | --- |
| IFHLFPFDNPYD | 0.8 ± 0.048 |
| GRNCGHSCANRP | 0.696 ± 0.027 |
| PRTGPLPPLTPL | 0.679 ± 0.016 |
| ISYQVDIIKGKI | 0.6781 ± 0.00071 |
| KTKGPKSKPKRK | 0.6563 ± 0.0046 |
| APPCILCLFPAC | 0.716 ± 0.024 |
| RRRRSITEHRSS | 0.69279 ± 0.00018 |
| PVVKGAAGSAQR | 0.725 ± 0.074 |
| WIGHALPSSNSH | 0.675 ± 0.056 |
| SVTPSPPPSRPF | 0.678 ± 0.057 |
| LLTAFQACPASN | 0.713 ± 0.04 |
| TSCPPPLAPSYD | 0.6909 ± 0.0045 |
| RDSLEKCLFEVQ | 0.703 ± 0.05 |
| LTPCPHATPEPP | 0.615 ± 0.026 |
| RSGENTVKPVRQ | 0.658 ± 0.029 |
| GATLGRQEPGHS | 0.671 ± 0.056 |
| YLPRLISAPVGP | 0.753 ± 0.076 |
| STTQFTLSATRI | 0.717 ± 0.093 |
| CLFPPTARHSFP | 0.778 ± 0.036 |
| KPKLSHPQPLRI | 0.699 ± 0.016 |
| LVCCRRILLNTT | 0.634 ± 0.089 |
| EGRRGVGGAWEG | 0.6573 ± 0.0037 |
| RGGSVDCRGNPL | 0.656 ± 0.013 |
| LRHLPRDVPSYI | 0.7049 ± 0.0046 |
| TIELNLPPSVVR | 0.642 ± 0.037 |

| Sequence | protein stability index |
| --- | --- |
| RHGLPPAPILSP | 0.661 ± 0.038 |
| IISQLEQSFISP | 0.7402 ± 0.0056 |
| WYYTCSEFSIYN | 0.693 ± 0.0071 |
| FRVEWKPLYHGI | 0.623 ± 0.037 |
| RYRPSPPPPPPH | 0.762 ± 0.054 |
| PPPPHYPHHTAS | 0.738 ± 0.029 |
| EGGGGKGRKRRA | 0.712 ± 0.022 |
| SPLPPSRSVHCA | 0.748 ± 0.072 |
| RGARGGSRGGGG | 0.677 ± 0.086 |
| PPPPFSPAHLPH | 0.6993 ± 0.0042 |
| FSPLARMGSGTL | 0.701 ± 0.0073 |
| EPRWPCNVAGIV | 0.706 ± 0.13 |
| LDVFSLASRPDG | 0.5928 ± 0.0053 |
| KGRAGTDVPLAR | 0.712 ± 0.052 |
| SLSSAPPIPPTL | 0.697 ± 0.011 |
| CRSRRPFGSDPI | 0.69 ± 0.019 |
| APSTPTPPPPPP | 0.686 ± 0.042 |
| YKNKRSNKRKHK | 0.702 ± 0.0098 |
| RREKQKTPAKKT | 0.634 ± 0.034 |
| VVAPETTPFSPR | 0.7193 ± 0.007 |
| FAFSDFHLVVFF | 0.684 ± 0.011 |
| TSLAPLPAPLRR | 0.725 ± 0.031 |
| PGPPPPPPALLP | 0.658 ± 0.056 |
| RLVLRGRWGIGR | 0.618 ± 0.0014 |
| SHLLPPPLTPAS | 0.673 ± 0.031 |

| Sequence | protein stability index |
| --- | --- |
| PWVGRFVRLGVR | 0.676 ± 0.058 |
| SLFLVLSLAQLL | 0.579 ± 0.066 |
| RAPSTPSGRPSL | 0.65 ± 0.051 |
| SNAFWVRPFKIG | 0.667 ± 0.013 |
| VGLLWEYVRLDG | 0.7079 ± 0.0036 |
| SGDVGGGHWVGG | 0.729 ± 0.013 |
| VRGVCLWGGVVG | 0.641 ± 0.099 |
| RWGGGQRLSRGT | 0.7082 ± 0.0037 |
| GVGRGGAVENKV | 0.742 ± 0.054 |
| EWGAGGVVVGGW | 0.718 ± 0.043 |
| GNFDRVSMTKFR | 0.73 ± 0.035 |
| ARGRAVRAAGAS | 0.688 ± 0.088 |
| GLPLPPPHPFSL | 0.7793 ± 0.0021 |
| DALWLAFFDVID | 0.711 ± 0.068 |
| PLPTSRKSFGLV | 0.665 ± 0.06 |
| TNRRSRLQVSSN | 0.635 ± 0.08 |
| PPYIMCPFTPGG | 0.632 ± 0.024 |
| LPSGLTSPPRSS | 0.712 ± 0.031 |
| CLTHLLPPAFPC | 0.694 ± 0.018 |
| RVQAVTNKVAAR | 0.692 ± 0.012 |
| LISSVRLACGVS | 0.554 ± 0.061 |
| RHDMTSGCVSHS | 0.703 ± 0.039 |
| SSPPSPPPPTPS | 0.702 ± 0.031 |
| PLLSYSPPAPPP | 0.664 ± 0.024 |
| RGLRVWWGLVGV | 0.633 ± 0.044 |

| Sequence | protein stability index |
| --- | --- |
| PGSLPPPPPPPP | 0.716 ± 0.016 |
| VFRGGGAVGSVR | 0.683 ± 0.043 |
| PRSTFLRRHLRV | 0.6184 ± 0.0037 |
| APSCPKSLTFLD | 0.734 ± 0.035 |
| PPLLPPPVPPVP | 0.727 ± 0.07 |
| PVVGNPHRIFGV | 0.714 ± 0.028 |
| PSPQNIPDPISP | 0.673 ± 0.04 |
| PTYRGAPCLPPF | 0.728 ± 0.013 |
| CSMGGWPTERGI | 0.6968 ± 0.0039 |
| MNERDKGKIKKQ | 0.6974 ± 0.0069 |
| SALSKYFLSVRL | 0.633 ± 0.012 |
| SPFLSLPHPSFP | 0.6053 ± 0.0013 |
| RFLLSITSSLVL | 0.666 ± 0.043 |
| LLPSPLPPLLRL | 0.6494 ± 0.0018 |
| LYITLLEFKEGR | 0.643 ± 0.025 |
| GSSPPSARVRLF | 0.763 ± 0.03 |
| GMTYWFCSFPFF | 0.686 ± 0.04 |
| GGSRGWGAAAGR | 0.766 ± 0.065 |
| LYSSPSLQSPNP | 0.613 ± 0.021 |
| IGSCLSRTRKRR | 0.6922 ± 0.0031 |
| FISVFALWDVFL | 0.7 ± 0.01 |
| DAVVPSSTVPLL | 0.7001 ± 0.0022 |
| ATDWPELFLPFG | 0.666 ± 0.007 |
| VRSVSCPCCAHF | 0.7058 ± 0.0056 |
| STYIMTFTSWEP | 0.68 ± 0.0078 |

| Sequence | protein stability index |
| --- | --- |
| PIDYRPEPYALP | 0.775 ± 0.034 |
| RGRPRRGGGVSG | 0.727 ± 0.047 |
| STSWDDLLYHSG | 0.716 ± 0.059 |
| PIGFSHISFSPS | 0.645 ± 0.1 |
| SVYLPFPSGLLL | 0.728 ± 0.073 |
| YIDDGVVENVRV | 0.681 ± 0.02 |
| PFRPPPLLPFSP | 0.799 ± 0.13 |
| LVGICERRHVHC | 0.638 ± 0.11 |
| DWWLPLFDWAKL | 0.872 ± 0.025 |
| SSRLLRGGTGFL | 0.722 ± 0.029 |
| TVHTILYVPDEL | 0.677 ± 0.021 |
| LGGGVVCGVWGG | 0.704 ± 0.03 |
| FFPARPPPPPPR | 0.769 ± 0.04 |
| CDGPFRLVLGGG | 0.672 ± 0.018 |
| SVDEARSVRCVI | 0.661 ± 0.025 |
| LNWMVMLGHGAC | 0.5729 ± 0.0014 |
| CLAPSIPPPLSS | 0.702 ± 0.036 |
| INKLRLNKKKSF | 0.659 ± 0.008 |
| DPGKWMRCHICE | 0.752 ± 0.035 |
| PNRSPPLPRPLM | 0.693 ± 0.0074 |
| CRTGHCRLTSKM | 0.708 ± 0.019 |
